Self-cleavage data for 56 variants are collected here from the RNAGym collection of RNA variant scans (doi:10.7554/elife.90254).

To fix the notation:
B1: LINE1-mini (parent)
chain: GGCAGAGCUCAACACAGCGUGGCAAAGUGGCUGUGGCUAGACUGCC

This data set covers variants of B1. Briefly: self-cleavage, relative activity (ratio to wild type); higher = more cleavage; in vitro, sequencing; the parent is a self-cleaving ribozyme.
Take GGCAGAGCUCAACACAGCGUGCCAAAGUGGCUGUGGCUAGACUGAC [G22C C45A]: the self-cleavage was found to be 0.39.

Turning to GGCAGAGCUCAACACAGCGUGCCAAAGUGGCUGUGGCUAGACUGGC [G22C C45G], the self-cleavage was found to be 0.17.

Consider GGCAGAGCUCAACACAGCGUGCCAAAGUGGCUGUGGCUAGACUGUC [G22C C45U], for which the self-cleavage came out at 1.21.

On to GGCAGAGCUCAACACAGCGUGCCAAAGUGGCUGUGCCUAGACUGCC [G22C G36C], for which the self-cleavage came out at 0.25.

As for GGCAGAGCUCAACACAGCGUGCCAAAGUGGCUGUGUCUAGACUGCC [G22C G36U], the self-cleavage amounted to 0.1.

Take GGCAGAGCUCAACACAGCGUGCCAAAGUGGCUGUGACUAGACUGCC [G22C G36A]: the self-cleavage is 0.05.

For GGCAGAGCUCAACACAGCGUGCUAAAGUGGCUGUGGCUAGACUGCC [G22C C23U], the self-cleavage is 0.64.

For GGCAGAGCUCAACACAGCGUGCGAAAGUGGCUGUGGCUAGACUGCC [G22C C23G], the self-cleavage is 0.28.

As to GGCAGAGCUCAACACAGCGUGCAAAAGUGGCUGUGGCUAGACUGCC [G22C C23A], the self-cleavage turned out to be 0.92.

For GGCAGAGCUCAACACAGCGUGCCAAAGUAGCUGUGGCUAGACUGCC [G22C G29A], the self-cleavage was 1.19.

Consider GGCAGAGCUCAACACAGCGUGCCAAAGUCGCUGUGGCUAGACUGCC [G22C G29C], for which the self-cleavage came out at 0.27.

With GGCAGAGCUCAACACAGCGUGCCAAAGUUGCUGUGGCUAGACUGCC [G22C G29U], the self-cleavage came to 0.38.

In the case of GGCAGAGCUCAACACAGCGUGCCAAAGUGGCUGUGGCUAGACUGCG [G22C C46G], the self-cleavage worked out at 0.13.

For the variant GGCAGAGCUCAACACAGCGUGCCAAAGUGGCUGUGGCUAGACUGCU [G22C C46U], the self-cleavage came to 0.65.

Consider GGCAGAGCUCAACACAGCGUGCCAAAGUGGCUGUGGCUAGACUGCA [G22C C46A], for which the self-cleavage came out at 0.61.

Consider GGCAGAGCUCAACACAGCGUGCCAAAGUGACUGUGGCUAGACUGCC [G22C G30A], for which the self-cleavage is 0.76.

GGCAGAGCUCAACACAGCGUGCCAAAGUGUCUGUGGCUAGACUGCC [G22C G30U]: the self-cleavage stood at 0.53.

As to GGCAGAGCUCAACACAGCGUGCCAAAGUGCCUGUGGCUAGACUGCC [G22C G30C], the self-cleavage was determined as 1.94.

GGCAGAGCUCAACACAGCGUGCCAAAAUGGCUGUGGCUAGACUGCC [G22C G27A]: the self-cleavage was found to be 0.75.

Take GGCAGAGCUCAACACAGCGUGCCAAACUGGCUGUGGCUAGACUGCC [G22C G27C]: the self-cleavage turned out to be 0.44.

GGCAGAGCUCAACACAGCGUGCCAAAUUGGCUGUGGCUAGACUGCC [G22C G27U]: the self-cleavage came to 0.53.

As for GGCAGAGCUCAACACAGCGUGCCAAAGUGGCUCUGGCUAGACUGCC [G22C G33C], the self-cleavage stood at 0.06.

GGCAGAGCUCAACACAGCGUGCCAAAGUGGCUUUGGCUAGACUGCC [G22C G33U]: the self-cleavage came out at 0.06.

Regarding GGCAGAGCUCAACACAGCGUGCCAAAGUGGCUAUGGCUAGACUGCC [G22C G33A], the self-cleavage was determined as 0.07.

On to GGCAGAGCUCAACACAGCGUGCCAAAGUGGCUGUGGCUAAACUGCC [G22C G40A], for which the self-cleavage came to 0.09.

As for GGCAGAGCUCAACACAGCGUGCCAAAGUGGCUGUGGCUAUACUGCC [G22C G40U], the self-cleavage was determined as 0.14.

Consider GGCAGAGCUCAACACAGCGUGCCAAAGUGGCUGUGGCUACACUGCC [G22C G40C], for which the self-cleavage was found to be 0.08.

With GGCAGAGCUCAACACAGCGUGCCAAAGUGGCUGUGGCAAGACUGCC [G22C U38A], the self-cleavage was determined as 0.31.

With GGCAGAGCUCAACACAGCGUGCCAAAGUGGCCGUGGCUAGACUGCC [G22C U32C], the self-cleavage stood at 0.11.

Turning to GGCAGAGCUCAACACAGCGUGCCAAAGUGGCGGUGGCUAGACUGCC [G22C U32G], the self-cleavage is 0.2.

As for GGCAGAGCUCAACACAGCGUGCCAAAGUGGCAGUGGCUAGACUGCC [G22C U32A], the self-cleavage came to 0.04.

For GGCAGAGCUCAACACAGCGUGCCAAAGUGGCUGUGGCUUGACUGCC [G22C A39U], the self-cleavage was determined as 0.55.

Turning to GGCAGAGCUCAACACAGCGUGCCAAAGUGGCUGUGGCUAGAAUGCC [G22C C42A], the self-cleavage is 0.13.

Regarding GGCAGAGCUCAACACAGCGUGCCAAAGUGGCUGUGGCUAGAUUGCC [G22C C42U], the self-cleavage amounted to 0.21.

Turning to GGCAGAGCUCAACACAGCGUGCCAAAGUGGCUGUGGCUAGAGUGCC [G22C C42G], the self-cleavage came to 0.03.

In the case of GGCAGAGCUCAACACAGCGUGCCAAAGUGGCUGUGGCUAGACUUCC [G22C G44U], the self-cleavage worked out at 0.4.

In the case of GGCAGAGCUCAACACAGCGUGCCAAAGUGGCUGUGGCUAGACUACC [G22C G44A], the self-cleavage came out at 0.13.

As to GGCAGAGCUCAACACAGCGUGCCAAAGUGGCUGUGGCUAGACUCCC [G22C G44C], the self-cleavage was found to be 0.41.

Consider GGCAGAGCUCAACACAGCGUGCCAAAGUGGCUGGGGCUAGACUGCC [G22C U34G], for which the self-cleavage came out at 0.17.

Consider GGCAGAGCUCAACACAGCGUGCCAAAGUGGCUGAGGCUAGACUGCC [G22C U34A], for which the self-cleavage amounted to 0.09.

In the case of GGCAGAGCUCAACACAGCGUGCCAAAGUGGCUGCGGCUAGACUGCC [G22C U34C], the self-cleavage was found to be 0.17.

For the variant GGCAGAGCUCAACACAGCGUGCCAAAGCGGCUGUGGCUAGACUGCC [G22C U28C], the self-cleavage was 0.5.

As to GGCAGAGCUCAACACAGCGUGCCAAAGAGGCUGUGGCUAGACUGCC [G22C U28A], the self-cleavage turned out to be 0.44.

In the case of GGCAGAGCUCAACACAGCGUGCCAAAGGGGCUGUGGCUAGACUGCC [G22C U28G], the self-cleavage is 0.43.

On to GGCAGAGCUCAACACAGCGUGCCAAAGUGGCUGUAGCUAGACUGCC [G22C G35A], for which the self-cleavage came to 0.14.

As for GGCAGAGCUCAACACAGCGUGCCAAAGUGGCUGUUGCUAGACUGCC [G22C G35U], the self-cleavage was 0.15.

GGCAGAGCUCAACACAGCGUGCCAAAGUGGCUGUCGCUAGACUGCC [G22C G35C]: the self-cleavage came to 0.08.

In the case of GGCAGAGCUCAACACAGCGUGCCAAAGUGGCUGUGGCUAGUCUGCC [G22C A41U], the self-cleavage was 0.72.

Consider GGCAGAGCUCAACACAGCGUGCCAAAGUGGCUGUGGCUAGGCUGCC [G22C A41G], for which the self-cleavage was found to be 0.23.

GGCAGAGCUCAACACAGCGUGCCAAAGUGGCUGUGGCUAGCCUGCC [G22C A41C]: the self-cleavage was determined as 0.05.

Turning to GGCAGAGCUCAACACAGCGUGCCAAAGUGGGUGUGGCUAGACUGCC [G22C C31G], the self-cleavage is 0.08.

For the variant GGCAGAGCUCAACACAGCGUGCCAAAGUGGUUGUGGCUAGACUGCC [G22C C31U], the self-cleavage came out at 0.26.

As to GGCAGAGCUCAACACAGCGUGCCAAAGUGGAUGUGGCUAGACUGCC [G22C C31A], the self-cleavage amounted to 0.14.

Regarding GGCAGAGCUCAACACAGCGUGCCAAAGUGGCUGUGGUUAGACUGCC [G22C C37U], the self-cleavage was determined as 0.02.

On to GGCAGAGCUCAACACAGCGUGCCAAAGUGGCUGUGGGUAGACUGCC [G22C C37G], for which the self-cleavage was determined as 0.05.

On to GGCAGAGCUCAACACAGCGUGCCAAAGUGGCUGUGGAUAGACUGCC [G22C C37A], for which the self-cleavage was 0.09.
